Experiments:
Test in all cases: cell-based or functional assay
Halo-LMO2 (human) = Halo-LMO2 (human) (UniProt P25791)
Halo-LYL1 (human) = Halo-LYL1 (human) (UniProt P12980)
Halo-LYL1(F201D) (human) = Halo-LYL1(F201D) (human) (UniProt P12980)
Halo-TAL1 (human) = Halo-TAL1 (human) (UniProt P17542)
Halo-TAL1(F238D) (human) = Halo-TAL1(F238D) (human) (UniProt P17542)

Sequence of UniProt P25791 (P25791 whole entry): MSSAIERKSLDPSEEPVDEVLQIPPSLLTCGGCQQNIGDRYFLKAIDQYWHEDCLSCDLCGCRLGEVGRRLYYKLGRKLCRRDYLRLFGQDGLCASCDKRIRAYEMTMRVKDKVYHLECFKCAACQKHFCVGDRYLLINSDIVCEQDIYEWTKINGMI

Substance	Halo-LMO2 t1/2, HaloLife pulse chase in Jurkat cells (6.6 hours without co-expression) (Halo-LMO2 (human)) [h]	Halo-LYL1 t1/2 with HA-LDB1 co-expressed in the presence of LMO2, HaloLife assay (Halo-LYL1 (human)) [h]	Halo-LYL1(F201D) t1/2 with HA-LDB1 co-expressed, HaloLife assay (Halo-LYL1(F201D) (human)) [h]	Halo-TAL1 t1/2 with HA-LDB1 co-expressed in the presence of LMO2, HaloLife assay (Halo-TAL1 (human)) [h]	Halo-TAL1(F238D) t1/2 with HA-LDB1 co-expressed, HaloLife assay (Halo-TAL1(F238D) (human)) [h]
HA-LDB1 (from UniProt Q86U70 1-375)	20.6	20.5	3.7	19.9	10.7
HA-LDB1ΔLID (from UniProt Q86U70 1-375)	4				
